Data reported in patent US7285395B2, “Stearoyl-CoA desaturase 4 gene” (Wisconsin Alumni Research Foundation, priority 2004, dated 2007).

Assays:
Assay type in all cases: in vivo, mouse
mSCD1 = test: quantitative RT-PCR of mSCD1 mRNA in hearts of leptin-treated ob/ob mice; details: heart of leptin-treated ob/ob mice, 12 days
Method: (§1) A, SCD activity: Microsomes were prepared from hearts of PBS-treated, ob/ob, ob/ob pair-fed (PF), and leptin-treated (ob/ob-Leptin) mice, and SCD enzyme activity was determined by measuring the incorporation of radioactivity in oleoyl-CoA using [1-^14C]stearoyl-CoA as a substrate. The reaction products were separated by TLC, and the radioactivity was quantitated. Each value represents the mean±S.E. (n=4). B, Levels of monounsaturated fatty acids in the hearts of ob/ob mice: Total fatty acids were extracted from heart of ob/ob mice treated with either leptin or PBS and wild type controls quantitated by GLC as described in the example below. *, p<0.05 versus wt-PBS; #,p<0.05 versus ob/ob-PBS. C, Total RNA was prepared from hearts of PBS or leptin-treated ob/ob mice and used to measure SCD1, SCD2, and SCD4 mRNA levels by quantitative RT-PCR analysis. The fold change relative to that of wild type was calculated after correction for the levels of cyclophilin used as a standard. Each value represents the mean±S.E. (n=4).
(§2) Subcutaneous Leptin Treatment—ob/ob mice were individually caged and allowed to acclimate for a number of days prior to the start of the experiment. […] Body mass and food intake were measured daily. […]

mSCD2 = test: quantitative RT-PCR of mSCD2 mRNA in hearts of leptin-treated ob/ob mice; details: heart of leptin-treated ob/ob mice, 12 days
Method: as §1, §2

mSCD4 = test: quantitative RT-PCR of mSCD4 mRNA in hearts of leptin-treated ob/ob mice; details: heart of leptin-treated ob/ob mice, 12 days
Method: as §1, §2

ob/ob mice = test: food intake and body weight of ob/ob mice under subcutaneous leptin treatment; details: leptin 200 ng/h subcutaneous miniosmotic pump
Method: Subcutaneous Leptin Treatment—ob/ob mice were individually caged and allowed to acclimate for a number of days prior to the start of the experiment. The mice were treated with 200 ng/h of recombinant mouse leptin (Amgen, Thousand Oaks, Calif.) […] phosphate-buffered saline (PBS) for 12 days using subcutaneously placed Alzet miniosmotic pumps model 1002 (AlZa Co., Palo Alto, Calif.) as described in Soukas, A. et al. (2000) Genes Dev. 14, 963-980, which is herein incorporated by reference in its entirety. As an additional control, a group of mice referred to as pair-fed was treated with PBS and given the same amount of food to eat as leptin-treated mice voluntarily consumed. All of the data presented were generated from this or a similar time course where mice were either treated with PBS or leptin for 12 days. Body mass and food intake were measured daily.
ob/ob mice have a mutation in the leptin gene and are a model of obesity, insulin resistance, and diabetes. […] We analyzed the mRNA level of the SCD4 isoform in the hearts of leptin-deficient ob/ob mice and ob/ob mice treated with either PBS or leptin. As an additional control, RNA isolated from saline-treated ob/ob mice that were pair-fed to the leptin treated group for 12 days was also analyzed. […] To determine which SCD isoform(s) accounted for these effects, we measured RNA levels of mSCD1, mSCD2, and mSCD4. […]

B1: leptin: recombinant mouse leptin (Amgen, Thousand Oaks, Calif.) (protein, UniProt P41160 22-167, looked up)
Leptin: VPIQKVQDDTKTLIKTIVTRINDISHTQSVSAKQRVTGLDFIPGLHPILSLSKMDQTLAVYQQVLTSLPSQNVLQIANDLENLRDLLHLLAFSKSCSLPQTSGLQKPESLDGVLEASLYSTEVVALSRLQGSLQDILQQLDVSPEC
mSCD1
  expression of mSCD1 isoform: unchanged
mSCD2
  expression of mSCD2 isoform: unchanged
mSCD4
  decrease of SCD4 mRNA levels: greater than 75%
ob/ob mice; after 12 days of treatment
  food intake: 1.2 ± 0.1 g
ob/ob mice; end of 12-day treatment
  loss of initial weight: 34±0.8%
